Measured values taken from US20160272690A1 (BAO KANG BIOMEDICAL HEALTHCARE, published 2016).
Bridges are numbered along the chain shown (N, C = ends). Where no end group is shown, it is not given here. [ ]: non-standard residue; d: D form. hCys = N[C@@H](CCS)C(=O)O

T1: TEAD
T1 chain: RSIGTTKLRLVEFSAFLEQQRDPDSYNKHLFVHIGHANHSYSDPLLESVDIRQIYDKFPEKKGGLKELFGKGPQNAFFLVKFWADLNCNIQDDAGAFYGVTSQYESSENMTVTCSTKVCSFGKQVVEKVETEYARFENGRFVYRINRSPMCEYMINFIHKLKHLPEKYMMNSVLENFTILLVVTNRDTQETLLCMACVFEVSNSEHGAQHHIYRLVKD


Biological target: T1, TEAD
Assay: IC50 for TEAD binding (TR-FRET test)

Row | Binder | IC50
1 | VPMCLRKLPESFCHPPE (disulfide 4-13) [polypeptide represented by SEQ ID NO.: 8] | 28 nM
2 | VPM[hCys]LRKLPCSFCDPPE (disulfide 4-13) [polypeptide represented by SEQ ID NO.: 9] | 25 nM
